The record followed here is patent US20110251106A1 (NEXTERA, published 2011).

The assay has as its target T1, Streptavidin on Dynabeads MyOne-Streptavidin magnetic beads (UniProt P22629 37-163, limits assumed).
T1 construct: also called SA; SA beads
Nature of the assay: streptavidin bead capture of virions, anti-M13 MAb-HRP detection.

T1 sequence (P22629 37-163 limits assumed): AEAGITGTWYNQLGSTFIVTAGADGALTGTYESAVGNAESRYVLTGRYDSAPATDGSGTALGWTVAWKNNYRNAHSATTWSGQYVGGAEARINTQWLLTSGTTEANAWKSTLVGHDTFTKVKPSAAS

B1: wild type pVII on M13K07 wt helper phage virions (other)
chain: MEQVADFDTIYQAMIQISVVLCFALGIIAGGQR
notes: Control virion with no tag on pVII; Also used here for phagemid virions packaged with wt M13K07; also called wildtype M13K07; wt pVII
Consider B1, for which the binding result is “no binding”.
